Measurements published in the supplement of paper PMC7125110.
± gives the standard error. This sample holds only a part of the variants without activity.

B1: glmS ribozyme (parent)
chain: AUAAAAGCGCCAGAACUACAGAAAUGUAGUUGACGAGGAGGAGGUUUAUCGAAUUUUCGGCGGAUGCCUCCAAA

Columns and labels:
Details in all cases: with glucosamine-6-phosphate
glucosamine-6-phosphate [1] = variants of: B1; assay: self-cleavage kobs at 640 uM GlcN6P; higher = faster cleavage; RNA array
Method in brief: (§1)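 Glucosamine-6-phosphate (40 μM to 10 mM) in HEPES/KCl/Mg(OAc)2 buffer was flowed over sequenced MiSeq chips, and tiles were imaged over ~14 h. Barcoded ribozyme variants there had been transcribed in situ by E. coli RNA polymerase and were tracked through a hybridised Cy3 probe at 37 °C. One- or two-exponential decay fits to per-tile medians, normalised to baseline and to non-cleaving reference variants, gave kobs. kcat and KM came from weighted Michaelis–Menten fits across concentrations.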

glucosamine-6-phosphate [2] = variants of: B1; assay: self-cleavage kobs at 2500 uM GlcN6P; higher = faster cleavage; RNA array
Method in brief: as §1

glucosamine-6-phosphate [3] = variants of: B1; assay: self-cleavage kobs at 160 uM GlcN6P; higher = faster cleavage; RNA array
Method in brief: as §1

glucosamine-6-phosphate [4] = variants of: B1; assay: self-cleavage kobs at 10000 uM GlcN6P; higher = faster cleavage; RNA array
Method in brief: as §1

Variant	self-cleavage kobs at 640 uM GlcN6P (glucosamine-6-phosphate [1]) [s⁻¹]	self-cleavage kobs at 2500 uM GlcN6P (glucosamine-6-phosphate [2]) [s⁻¹]	self-cleavage kobs at 160 uM GlcN6P (glucosamine-6-phosphate [3]) [s⁻¹]	self-cleavage kobs at 10000 uM GlcN6P (glucosamine-6-phosphate [4]) [s⁻¹]
A6C C16A U31C	< 1e-05	< 1e-05	–	–
A6C G13C G51U	< 1e-05	–	–	–
U46G U56G C70U	0.000436 ± 9.2e-05	0.00119 ± 0.00031	0.000211 ± 5.3e-05	–
G51C U54G	< 1e-05	–	< 1e-05	–
G51C U65G	< 1e-05	< 1e-05	< 1e-05	–
A6C G35C U54A	< 1e-05	< 1e-05	–	< 1e-05
G51U A53U	< 1e-05	< 1e-05	< 1e-05	< 1e-05
G66C C68G	–	–	0.000523 ± 0.00015	–
U54A G59A C71A	< 1e-05	–	< 1e-05	–
U47C G51U C68U	–	< 1e-05	< 1e-05	–
U49A G62A	< 1e-05	–	< 1e-05	–
A6C C34A G41C C68A	< 1e-05	< 1e-05	–	–
A64G G66U C70U	0.000373 ± 9.3e-05	0.000872 ± 0.00017	0.000115 ± 2.1e-05	–
A6C C11A U47C	< 1e-05	< 1e-05	–	–
C50U A52G C70A	0.000125 ± 3.7e-05	6.9e-05 ± 2.3e-05	5.11e-05 ± 2.3e-05	–
C58G C67G	0.000101 ± 1.3e-05	5.23e-05 ± 1e-05	5.68e-05 ± 1.1e-05	1.83e-05 ± 8.7e-06
A53G A64U U69G	0.000772 ± 0.00022	0.000517 ± 0.00019	0.000191 ± 6.9e-05	–
A6C G35U G37U G38C	< 1e-05	–	–	–
G59C G60A	–	< 1e-05	< 1e-05	–
U47C G59A	–	–	< 1e-05	–
G66U U69C	0.000207 ± 6.9e-05	0.000653 ± 0.00016	0.000111 ± 2e-05	–
U2C G32C G60U G63C	< 1e-05	–	–	–
U45C A53C C67U	5.23e-05 ± 1.6e-05	6.03e-05 ± 1.8e-05	< 1e-05	–
A48C A52U	< 1e-05	< 1e-05	< 1e-05	< 1e-05
A53C G60U A64U U65G	< 1e-05	–	< 1e-05	–
A53C C58G G60A C67U	–	8.04e-05 ± 2.5e-05	0.000139 ± 3.1e-05	–
